Data published in US20120058906A1 (published 2012).
Blank lines part the entries; values can stand above or below the binder they belong to.

Experiments:
[1] = target: T1, rHuman P-Cadherin/Fc Chimera, CF (R&D Systems Cat#861-PC) (human, UniProt P22223 108-654); assay: MSD ECL multi-spot plate, antigen immobilized; Fab 200 nM; blank spot 588
T1 construct: Purchased Fc chimera; not shown: Fc portion of the purchased chimera

[2] = target: T2, rHuman Notch-1/Fc Chimera, CF (R&D Systems Cat#3647-TK) (human, UniProt P46531 19-526); assay: as above
T2 construct: Purchased Fc chimera; not shown: Fc portion of the purchased chimera

[3] = target: T3, rHuman EGF R/Fc Chimera, CF (R&D Systems Cat#344-ER) (human, UniProt P00533 25-645); assay: as above
T3 construct: Purchased Fc chimera; not shown: Fc portion of the purchased chimera

[4] = target: T4, rHuman CD44/Fc Chimera, CF (R&D Systems Cat#3660-CD) (human, UniProt P16070 21-220); assay: as above
T4 construct: Purchased Fc chimera; not shown: Fc portion of the purchased chimera

[5] = target: T5, rHuman ErbB2/Fc Chimera, CF (R&D Systems Cat#1129-ER) (human, UniProt P04626 23-652); assay: as above
T5 construct: Purchased Fc chimera; also called HER2/neu; not shown: Fc portion of the purchased chimera

[6] = target: T6, rHuman HGF R/c-MET/Fc Chimera, CF (R&D Systems Cat#358-MT/CF) (human, UniProt P08581 25-932); assay: MSD ECL multi-spot plate, antigen immobilized; Fab 8 nM; blank spot 479
T6 construct: Purchased Fc chimera; also called HGF R/Fc; not shown: Fc portion of the purchased chimera

[7] = target: T7, Recombinant Human DLL4 (R&D Systems Cat#1506-D4/CF) (human, UniProt Q9NR61 27-524); assay: as above
T7 construct: Purchased recombinant protein; also called delta-like protein 4

[8] = target: T8, rHuman IGF-1 sR (IGF-1 sR), CF (R&D Systems Cat#391-GR) (human, UniProt P08069 31-932); assay: as above
T8 construct: Purchased soluble receptor; also called insulin-like growth factor-1 soluble receptor; IGF-R1

[9] = target: T1, rHuman P-Cadherin/Fc Chimera, CF (R&D …); assay: as above
[10] = target: T2, rHuman Notch-1/Fc Chimera, CF (R&D …); assay: as above
[11] = target: T3, rHuman EGF R/Fc Chimera, CF (R&D …); assay: as above
[12] = target: T9, rHuman Erythropoietin R/Fc Chimera, CF (R&D Systems Cat#963-ER) (human, UniProt P19235 25-250); assay: as above
T9 construct: Purchased Fc chimera; also called EPO R/Fc; Epo R; not shown: Fc portion of the purchased chimera
T9 sequence: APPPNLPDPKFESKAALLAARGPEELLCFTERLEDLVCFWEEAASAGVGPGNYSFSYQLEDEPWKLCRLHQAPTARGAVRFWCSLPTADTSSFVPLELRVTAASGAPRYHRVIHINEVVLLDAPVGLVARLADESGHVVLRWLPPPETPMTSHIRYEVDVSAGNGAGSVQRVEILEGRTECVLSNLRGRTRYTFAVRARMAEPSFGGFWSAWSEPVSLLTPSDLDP

[13] = target: T4, rHuman CD44/Fc Chimera, CF (R&D Systems …); assay: as above
[14] = target: T5, rHuman ErbB2/Fc Chimera, CF (R&D …); assay: as above
[15] = target: T10, rHuman ErbB2/Fc Chimera, CF (R&D Systems Cat#1129-ER) (human, UniProt P04626 23-652); assay: ECL (MSD multi-spot), antigen spotted on plate; Fab 352.5 nM; blank spot 494
T10 construct: Bought reagent; also called HER2/neu; human epidermal growth factor 2 receptor; Fc part of the bought chimera not given

[16] = target: T11, rHuman HGF R/c-MET/Fc Chimera, CF (R&D Systems Cat#358-MT/CF) (human, UniProt P08581 25-932); assay: as above
T11 construct: Bought reagent; also called HGF R/Fc; hepatocyte growth factor receptor; Fc part of the bought chimera not given

[17] = target: T12, Recombinant Human DLL4 (R&D Systems Cat#1506-D4/CF) (human, UniProt Q9NR61 27-524); assay: as above
T12 construct: Bought reagent; also called delta-like protein 4

[18] = target: T13, rHuman CD44/Fc Chimera, CF (R&D Systems Cat#3660-CD) (human, UniProt P16070 21-220); assay: as above
T13 construct: Bought reagent; Fc part of the bought chimera not given

[19] = target: T14, rHuman IGF-1 sR (IGF-1 sR), CF (R&D Systems Cat#391-GR) (human, UniProt P08069 31-932); assay: as above
T14 construct: Bought soluble receptor; also called insulin-like growth factor-1 soluble receptor; IGF-R1
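Note: blank spot per well as comparator with Hit at signal to blank ratio of 4 or more.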

- ECL signal [1]: 1130 ECL signal
- ECL signal [2]: 1250 ECL signal
- ECL signal [3]: 1370 ECL signal
- ECL signal [4]: 1160 ECL signal
- ECL signal [5]: 1470 ECL signal
B1: Fab VH5-51_IGHD5-18*01>3_IGHJ4*01_G100K & V3-4_IGLJ1*01 (Fab, V domains shown)
VH: EVQLVQSGAEVKKPGESLKISCKGSGYSFTSYWIGWVRQMPGKGLEWMGIIYPGDSDTRYSPSFQGQVTISADKSISTAYLQWSSLKASDTAMYYCARRKYSYGYDYFDYWGQGTLVTVSS
VL: QTVVTQEPSFSVSPGGTVTLTCGLSSGSVSTSYYPSWYQQTPGQAPRTLIYSTNTRSSGVPDRFSGSILGNKAALTITGAQADDESDYYCVLYMGSGISYVFGTGTKVTVL
notes: It was expressed as a Fab: CH1 with tags from Plasmid A and lambda CL from Plasmid E; also called Fab No. 22

- ECL signal [6]: 1240 ECL signal
- ECL signal [7]: 5470 ECL signal
- ECL signal [8]: 1110 ECL signal
- ECL signal [9]: 669 ECL signal
- ECL signal [10]: 916 ECL signal
- ECL signal [11]: 1080 ECL signal
- ECL signal [12]: 911 ECL signal
- ECL signal [13]: 786 ECL signal
- ECL signal [14]: 1330 ECL signal
B2: Fab VH5-51_IGHD5-18*01>3_IGHJ4*01_G100R & V3-4_IGLJ1*01 (Fab, V domains shown)
VH: EVQLVQSGAEVKKPGESLKISCKGSGYSFTSYWIGWVRQMPGKGLEWMGIIYPGDSDTRYSPSFQGQVTISADKSISTAYLQWSSLKASDTAMYYCARRRYSYGYDYFDYWGQGTLVTVSS
VL: QTVVTQEPSFSVSPGGTVTLTCGLSSGSVSTSYYPSWYQQTPGQAPRTLIYSTNTRSSGVPDRFSGSILGNKAALTITGAQADDESDYYCVLYMGSGISYVFGTGTKVTVL
notes: It was expressed as a Fab: CH1 with tags from Plasmid A and lambda CL from Plasmid E; also called Fab No. 23

- ECL signal [15]: 514
- ECL signal [16]: 606
- ECL signal [17]: 660
- ECL signal [18]: 556
- ECL signal [19]: 528
B3: Fab VH1-46_IGHD3-10*01_IGHJ4*01 & B3_IGKJ1*01 (Fab, V domains shown)
VH: QVQLVQSGAEVKKPGASVKVSCKASGYTFTSYYMHWVRQAPGQGLEWMGIINPSGGSTSYAQKFQGRVTMTRDTSTSTVYMELSSLRSEDTAVYYCAREYYYGSGSYYNDYFDYWGQGTLVTVSS
VL: not shown
notes: also called IGHV1-46*01
